In patent publication US8492099B2, “Method of measuring enzymatic activity of adsorbed allergenic enzyme” (Alk-Abello A/S, priority 2005, dated 2013):

Assays:
[1] = Papain enzyme activity fluorescence assay (activity measurements and Michaelis-Menten kinetic), papain/aluminium hydroxide adsorption experiment; type: biochemical
Protocol: After measuring the enzymatic activity the maximal slope of the progress curve was estimated using the software SoftMax® PRO Life Sciences Edition, Molecular Devices, 2001. After estimating the initial velocity of the experiments they were transferred to Prism and analyzed.
(§1) After adsorption 500 μL was taken out for further analysis and the rest of the mixture was centrifuged for 10 min at 400 rpm. The rest of the samples analysed follow the flow scheme in FIG. 12. Furthermore a control (Con) containing papain in Bis-Tris buffer in the absence of aluminium hydroxide was prepared.
Two types of enzymatic assays were performed: (i) activity measurements using a fixed substrate concentration to evaluate enzyme activity and (ii) Michaelis-Menten kinetic to estimate the kinetic parameters Vmax and KM.
All activity assays were conducted with BisTris buffer, pH 6.5, 5 mM DTT/, mM EDTA and Z-FR-AMC as substrate.

[2] = Papain activity over time in the absence of aluminium hydroxide; type: physicochemical; conditions: 10 μg/mL papain in 50 mM Bis-Tris, 4° C.
Protocol: Papain was mixed with 50 mM Bis-Tris buffer to a final concentration of 10 μg/mL in a total volume of 500 μL. The mixture was incubated at 4° C. and samples were taken out at 0, 30 and 60 min. The samples were diluted and incubated for 10 min in buffer containing DTT and subsequently activity was measured after addition of substrate. […] Additional loss occurs until the initiation of the enzymatic assay.

[3] = Adsorption of papain to aluminium hydroxide: protein concentration by A280; type: physicochemical; conditions: 100 μg/mL papain, 1.14 mg/mL aluminium hydroxide, 1 h at 4° C.; ANOVA p-value=0.615
Source text: The aromatic amino acids tryptophan, tyrosine and phenylalanine absorb ultraviolet light. However only tryptophan and tyrosine absorb at 280 nm and tryptophan absorbs 5 times more light than tyrosine. This is due to the […] transition in the indole ring of tryptophan where phenylalanine and tyrosine contains a phenyl group. The absorbance of a protein is linearly correlated with the amount of tryptophan and tyrosine in the protein, the length of the light path and the concentration of protein. This relationship is named Lambert-Beer's law and is given by: A=ε·l·c where A is the absorbance, ε is the molar absorption coefficient for the protein (determined by the amount of tryptophan and tyrosine in the protein) l is the length of the light path and c is the protein concentration. Thus from an absorbance measurement the concentration of protein can be estimated if the molar absorptivity coefficient is known. • Apparatuses • Lambda 800 UV/VIS Spectrometer, PerkinElmer™ • 100-QS, quartz cuvette, path length 1 cm, Hellma® • Materials and Reagents • 50 mM Bis-Tris pH 6.5, Sigma • 50 mM Tris pH 7.0, Sigma • 50 mM phosphate buffer pH 7.0, Merck • 2% Helmanex solution, Hellma Experimental Procedure
The spectrophotometer was turned on 30 min prior to use for a warm up period. […] After cleaning the cuvette 20 μL of sample was transferred to the cuvette and the absorbance was measured. […]

[4] = Adsorption of papain to aluminium hydroxide: active enzyme by active site titration with E-64; type: biochemical
Protocol: as §1
The active site titration was used to estimate the amount of active enzyme in the different samples. This is in contrast to the protein concentration estimated from A280 which represents the total protein content of the sample.

[5] = Adsorbed: papain adsorbed to aluminium hydroxide (mix 2)
[6] = Control: papain in the absence of aluminium hydroxide
[7] = activity measurements, 30 μM Z-FR-AMC

B1: papain: cysteine protease Car p 1 from the plant Carica papaya, purified, Sigma; chosen as negative control (protein, UniProt P00784 134-345, looked up)
Papain: IPEYVDWRQKGAVTPVKNQGSCGSCWAFSAVVTIEGIIKIRTGNLNEYSEQELLDCDRRSYGCNGGYPWSALQLVAQYGIHYRNTYPYEGVQRYCRSREKGPYAAKTDGVRQVQPYNEGALLYSIANQPVSVVLEAAGKDFQLYRGGIFVGPCGNKVDHAVAAVGYGPNYILIKNSWGTGWGENGYIRIKRGTGNSYGVCGLYTSSFYPVKN
- Vmax in Mix3 relative to Mix1 [1]: 7%
- Vmax in solution (Sup1+Sup2) relative to Mix1 [1]: 97%
- Km [1, 5]: 21 µM
- Vmax [1, 5]: 44.1 ng/mL · s
- kcat (Vmax/protein concentration, A280) [1, 5]: 14.58 s⁻¹
- kcat (Vmax/protein concentration, active site titration) [1, 5]: 12.18 s⁻¹
- Vmax [1, 6]: 373.9 ng/mL · s
- kcat (Vmax/protein concentration, A280) [1, 6]: 5.13 s⁻¹
- kcat (Vmax/protein concentration, active site titration) [1, 6]: 11.41 s⁻¹
- Km ([1]; Control: papain in the absence of aluminium hydroxide, Z-FR-AMC, pH 6.5): 22 µM
- Activity in Mix1 found in solution (Sup1+Sup2) [1, 7]: 96%
- Activity of papain adsorbed to aluminium hydroxide (Mix3) [1, 7]: 8%
- Difference between KM estimates of samples in presence and absence of aluminium hydroxide ([1]; one-way ANOVA p-value=0.999): no significant difference
- Part of the enzyme not bound to the adjuvant ([1]; papain with aluminium hydroxide): 93%
- Activity of the control lower than the activity of Mix1 ([1]; papain without vs with aluminium hydroxide): 17%
- Activity at 60 min lower than at 0 and 30 min (loss of activity) [2]: 7%
- Adsorption of papain to aluminium hydroxide (A280, Con vs Sup1) [3]: does not adsorb significantly
- Active papain adsorbed to aluminium hydroxide (Mix3) [4]: approximately 7%
- Active papain in solution (Sup1+Sup2) [4]: 91%
